This test addresses T1, N-terminal Protein-A tagged Esc2 (WT) (S. cerevisiae, UniProt Q06340 1-456).
T1 construct: Esc2, S. cerevisiae, protein with two SUMO-like domains (SLD1, SLD2); details of plasmid construction are available upon request; also called WT Esc2; ScEsc2; source: bacteria (BL21 cells), purified with IgG sepharose resin; not shown: Protein A, N-terminal, kept
T1 sequence (looked up): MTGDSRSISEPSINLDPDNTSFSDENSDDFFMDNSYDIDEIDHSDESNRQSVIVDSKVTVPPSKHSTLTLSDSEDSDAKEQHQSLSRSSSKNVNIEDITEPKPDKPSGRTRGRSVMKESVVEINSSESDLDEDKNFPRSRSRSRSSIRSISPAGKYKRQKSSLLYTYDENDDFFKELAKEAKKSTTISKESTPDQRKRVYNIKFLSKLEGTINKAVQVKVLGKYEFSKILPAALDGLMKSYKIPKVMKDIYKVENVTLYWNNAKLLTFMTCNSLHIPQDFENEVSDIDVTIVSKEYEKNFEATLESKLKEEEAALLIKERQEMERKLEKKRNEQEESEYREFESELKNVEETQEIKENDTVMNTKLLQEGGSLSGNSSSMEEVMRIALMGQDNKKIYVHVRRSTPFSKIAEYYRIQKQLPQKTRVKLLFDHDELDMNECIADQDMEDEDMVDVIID
Nature of the test: pull-down; 40 ug Protein-A-Esc2 (WT or D430R) bound to 20 uL IgG resin, incubated with 100 ug purified Ubc9 in 200 uL for 2 hours on ice; washed 5 times with PBS with 0.2% NP-40; bound Ubc9 eluted and seen by Coomassie staining. As to conditions: both partners purified.

B1: C-terminal 6xHIS tagged Ubc9 (enzyme, S. cerevisiae, UniProt P50623 1-157, looked up)
chain: MSSLCLQRLQEERKKWRKDHPFGFYAKPVKKADGSMDLQKWEAGIPGKEGTNWAGGVYPITVEYPNEYPSKPPKVKFPAGFYHPNVYPSGTICLSILNEDQDWRPAITLKQIVLGVQDLLDSPNPNSPAQEPAWRSFSRNKAEYDKKVLLQAKQYSK
notes: Ubc9, SUMO E2 conjugating enzyme, S. cerevisiae; also called Ubc9 SUMO conjugating enzyme; E2
On to B1, for which the binding result is on record as “binds”.

(Values after article PMC7891725, “Shared and distinct roles of Esc2 and Mms21 in suppressing genome rearrangements and regulating intracellular sumoylation” (PLoS ONE, 2021).)
